Biological target: T1, recombinant human (rh) CD16A protein conjugated with APC fluorophore (human, UniProt P08637 17-208, APC fluorophore conjugate)
T1 construct: also called APC-tagged rhCD16A
Experiment: 'sandwich' flow cytometry: NB-EBC1 cells incubated with cSN, then stained with APC-conjugated rhCD16A
Method: FIGS. 3A-E. Production and binding characterization of BICEs. (FIG. 3A) Flow cytometry histograms showing His-tag cell surface expression in neuroblastoma cells incubated with concentrated supernatants (cSNs) from CAR constructs (CAR.GPC2, CAR.GPC2-BiCE.GD2 or CAR.GPC2-BICE.CD19) or 1×PBS and then stained with phycoerythrin (PE)-tagged anti-His-tag antibody. Neuroblastoma cells with high (NB-EBC1 and SMS-SAN) and low (SY5Y) GD2 expression were selected. Leukemia (NALM6) cells with high CD19 were utilized as controls. (FIG. 3B) Concentration-dependent binding of CAR.GPC2-BICE.GD2 cSN in GD2-high NB-EBC1 cells. (FIG. 3C) Binding competition assay between FDA-approved anti-GD2 antibody dinutuximab and CAR.GPC2-BiCE.GD2 cSNs. (FIG. 3D) Graphical scheme of the “sandwich” binding assays where GD2-expressing neuroblastoma cells were incubated with bicistronic vector cSNs and then stained with recombinant human (rh) CD16A protein previously conjugated with APC fluorophore. (FIG. 3E) Flow cytometry histograms showing CD16A sdAb APC staining in GD2-positive cells incubated with GPC2.CAR-GD2.BiCE cSN but not with control vector cSN (GPC2.CAR-CD19.BiCE).
Next, to study whether BiCEs might produce a molecular synapsis between GD2-expressing cells and CD16a, a “sandwich” binding assay was developed as illustrated in FIG. 3D. […]

T1 sequence (P08637 17-208 limits assumed): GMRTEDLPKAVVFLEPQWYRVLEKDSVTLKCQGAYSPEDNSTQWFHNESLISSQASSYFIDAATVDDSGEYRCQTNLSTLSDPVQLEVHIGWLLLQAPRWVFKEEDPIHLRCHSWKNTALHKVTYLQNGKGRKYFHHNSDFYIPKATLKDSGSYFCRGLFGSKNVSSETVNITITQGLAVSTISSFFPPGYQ

binding result: binds
B1: GD2-targeted bispecific innate immune cell engager (GD2 scFv 14g2a linked to CD16A single-domain antibody sdA1, His-tagged) (bispecific antibody)
chain: DILLTQTPLSLPVSLGDQASISCRSSQSLVHRNGNTYLHWYLQKPGQSPKLLIHKVSNRFSGVPDRFSGSGSGTDFTLKISRVEAEDLGVYFCSQSTHVPPLTFGAGTKLELKGSTSGSGKPGSGEGSTKGEVKLQQSGPSLVEPGASVMISCKASGSSFTGYNMNWVRQNIGKSLEWIGAIDPYYGGTSYNQKFKGRATLTVDKSSSTAYMHLKSLTSEDSAVYYCVSGMEYWGQGTSVTVSSGSTSGSGKPGSGEGSTKGEVQLVESGGGLVQPGGSLRLSCAASGFTFSNYGMSWVRQAPGKGLEWIGSIYYSGSTNYNPSLKSLVTISRDNSKNTLYLQMNSLRAEDTATYYCARESIDYWGQGTLVTVSSHHHHHH
notes: Used as concentrated supernatant (cSN) of HEK 293T cells transfected with the bicistronic GPC2.CAR-GD2.BiCE vector; also called GD2 BiCE; GD2.BiCE
